Assay results reported in article PMC2063705 (The Journal of Cell Biology, 2006).

Molecular target: microtubules polymerized from purified tubulin, stabilized with paclitaxel (UniProt Q6B856 1-445)
Experiment: co-sedimentation

Kd [nM]	Binder
1100 ± 200	wild-type p150^Glued NH2-terminal residues 1–333 (domain or fragment, human, UniProt Q14203-1 1-333, looked up, [35S]methionine label (microtubule binding assay)) MAQSKRHVYSRTPSGSRMSAEASARPLRVGSRVEVIGKGHRGTVAYVGATLFATGKWVGVILDEAKGKNDGTVQGRKYFTCDEGHGIFVRQSQIQVFEDGADTTSPETPDSSASKVLKREGTDTTAKTSKLRGLKPKKAPTARKTTTRRPKPTRPASTGVAGASSSLGPSGSASAGELSSSEPSTPAQTPLAAPIIPTPVLTSPGAVPPLPSPSKEEEGLRAQVRDLEEKLETLRLKRAEDKAKLKELEKHKIQLEQVQEWKSKMQEQQADLQRRLKEARKEAKEALEAKERYMEEMADTADAIEMATLDKEMAEERAESLQQEVEALKERVD
2600 ± 500	G59S p150^Glued NH2-terminal residues 1–333 (domain or fragment, human, UniProt Q14203-1 1-333, looked up, [35S]methionine label (microtubule binding assay)) MAQSKRHVYSRTPSGSRMSAEASARPLRVGSRVEVIGKGHRGTVAYVGATLFATGKWVSVILDEAKGKNDGTVQGRKYFTCDEGHGIFVRQSQIQVFEDGADTTSPETPDSSASKVLKREGTDTTAKTSKLRGLKPKKAPTARKTTTRRPKPTRPASTGVAGASSSLGPSGSASAGELSSSEPSTPAQTPLAAPIIPTPVLTSPGAVPPLPSPSKEEEGLRAQVRDLEEKLETLRLKRAEDKAKLKELEKHKIQLEQVQEWKSKMQEQQADLQRRLKEARKEAKEALEAKERYMEEMADTADAIEMATLDKEMAEERAESLQQEVEALKERVD
